In the DeepSol protein solubility set:

Assay: soluble on expression in E. coli; label from the status in PepcDB or PDB records

Sequence | soluble on expression in E. coli
MAIFRDYSINPTEHDRTIGDRRRHRELVEKAIKDNLADIVSEESIIGESKSKKIKIPIRGLKEYKFLYGNNSSSVGSGTGNEKKGDIIGKEQMGNGSKGKGKGAGNSEGEDIYETEVTIEEVFSYLLEDLNLPNLDKKKYSEIVTDSSKKKAGYQKYGIRPRLAKKRTVIEKIKREQSRKRAIKELGKDDKVERLPFSEEDLRYHRIKEKPKKECNAAIMCVMDCSGSMDSTKKYLARSFFFILSKFIRMKYVNVEIAFISHSTVGREVTETEFFHKVESGGTYISSGLNTAMDIIKERFNPATWNIYGFYVSDGDNFTEDDERAIKSMRKFCEIANMIGYAEILPYSYSGTMKYKFDNYVKDKNFISSTIRNKEDLWPVLKKMLIKELKELEHHHHHH | soluble
MSLINLVEKEWQEHQKIVQASEILKGQIAKVGELLCECLKKGGKILICGNGGSAADAQHFAAELSGRYKKERKALAGIALTTDTSALSAIGNDYGFEFVFSRQVEALGNEKDVLIGISTSGKSPNVLEALKKAKELNMLCLGLSGKGGGMMNKLCDHNLVVPSDDTARIQEMHILIIHTLCQIIDESF | soluble
MANQKKDSLSTLFSEEVHGPFVTFLFNTHVAHQNVEKDSLVLKNFAKAAKTRFEKKFPEEKWSVFQEKIDALLADASFWRNGTASVSIILSPENTFVQRLDVPVDDQYYVDTIPYLLGLVKDKQFNYHYYLLALNRDSMKLYKVDHTTVTPVELPKDAPTDVVTALGDELTGGNLNFSTQGSSNGSKEGVAYHSINTKDKEVEIDWVNYYQAVDTFLKDQLDNPEKLPLYLYALPENQTLFKKIAKNPYYDCSISVAASPAQATIQDIRSASEKIAAELTEKETASYNKLLDRKFLDQFTDISPAAADGKISHLFIATSLFVTENNEMSSEEYDRRKLLNTIAYQVIQNGGQVFVLDQKAAPDEKSLAAILRY | not soluble
MGSDKIHHHHHHMNILLVYKEDYPWDVRVEKIALSLISRGHDVTIVARNRQCSKTTETVNGIEIVRLPALFKPDGLLNKLLNLPVWFNPFWIWTLRSALRGKPGALIIVRDLPLVKTALLVARGARAKIMLDMAEVYPYMYESGRQFSKGTNFESMIKSPALAARYEAKVLPKIDHTLVMIEESRDRLLQMGLSPQRVSIVSNTPPLDKFSGNTHQHQGRKLRLVYVGFLTKLRGLDLLIEAAYEYVKLGNEPSSLKIDIVGKGAEREHLIALVRDLKLEESVTIHGWLDHQRVDELMAQANVGALTYRVCPHWNHTIPNKIFDYMLAGLPVLATEVTPINRIINETKSGLVCRDLDIRDIAEKLQTLRCPELRSTLGNNGVNAVRAKYNWANDEQRLHAAVNSIAP | not soluble
MGSDKIHHHHHHMTEITTLSQFLTTAKTQFQVYDLGRRVQHIDMLAFHQIESLATPYPYPIQGHAQFAIVFWDASQQHFIWFLKLALDEQGLLSPAPRSQFIEMVLSALGQDPTQPLSNEQQEHLANNPFSFTPSQEKLAVFNALVRKQLGQHASVQYEFAMQYLSGQIAPSQWQHIGIQGIADVCVRANELDHEAKLLTSFDSAAIEVQIALCQCLEHVQISPLLANKILNKLTAAEPEHKAYFLRALASNSELSQKALAHLHQGSNLDANTLISIAGRNWTVLKQELSRSIYLEALALQPQTFFNQIFADIVAIPSLRNLLLGELRNPNRSIQLSQAIGGLFKAASK | not soluble
MEKAPLLLETVEQAVRILQESPFVAIWNYKVLSVQAGAVALALPAQPQFYRPGGIIQGGCLMTLADTAFWLAAMTELGIDAPIVTLEMKTHFLRAAQADVYCRAEVMKSGRRVTYGTATITDAAGQTLSHHTLTYLAA | not soluble
MGYKPTQRDIVIIDFAPSKGYEIRKRRPALVMSKDSYNISTNLVIVCPITSLDKERPFLVPIYSEKLHTSDNAVSKVNTLQVYSLDYTEQAQRRIKYVDTLDEETFYEIAQKFLQNFSFAV | not soluble
MTGSTAGKVLVVGALGVVGRAALEHFGQRPGLARVGLSRRAPDFAPEATWISADLRDAQATRAALAAHGDATHVVYAALNEQPDLLKGWRDSGNVDLNTRMLRNTLDALREAPLRHVTLLQGTKAYGVHTGRPMPVPARETDAVRDHANFYFDQQDLLAERAAAQGFAWTIFRPQIVLGVALGSAMNPVATLGAYAALSREAGQPLRYPGHPHLLTECTDARLIARAIAWAWDEPRAHGEAFNIANGDVVLWQPVFERLAALFGMPLGEPVDTRMREAMPEQAERWRAIAERERLAVPQLRDLIGLSWQYADATWAARHPLPVPPLVSTIKLRQAGFGDCIDTQECIVEHLREMQRLRYLPRLEHHHHHH | not soluble
MYQSIHVNKGQGGWGTGLDLTPSEPRTKVVSITGGGIHPVALKIAELSGAEAVDGFKNSIPEEEMMCVVIDCGGTARIGVYPMKRIPTVDILPSSPSGPLAKHITEDIFVSGVKPEDIMVTSSEADPGKPFDREKFKEDYAKIKEDQQEASDLKEGYLVKFSRGIGKAMGVFYQAGRDSVDMLIKN | not soluble
MKLLLIGYGNVGKAFRRLLHEKKDNYPILQGVEIAGIITRQGLMVGDKENFSPDKQLTVLEAIDYINPDVIVDMSVPNYKDGEPSVSAYIKALSRKIHVITVNKAPLALKFREIFEVAEKTGAKIGFQGTVMSGTPSINLFRIQPVAEVSRIRGILNGTTNYILTRIYEGLSFNEALKEAKEKGYAEEDPTLDLNGFDAAAKLTILSNFIMNRSLKLGDFKFKGITEITNEEIRRAKSEGKKIKLIAYADNYVVQVSPQIIGPQDPLYYIDGVENALEIQNEIQRIIIRGPGAGPINAAYGALSDLVLLLEGCL | not soluble
MMEDDGQPRTLYVGNLSRDVTEVLILQLFSQIGPCKSCKMITEHTSNDPYCFVEFYEHRDAAAALAAMNGRKILGKEVKVNWATTPSSQK | soluble
MSLDMNKPEGFDCPGCAWPDPKHSASFDICENGAKAIAWEVTDKQVNASFFAENTVQSLLTWGDHELEAAGRLTQPLKYDAVSDCYKPLSWQQAFDEIGARLQSYSDPNQVEFYTSGRTSNEAAFLYQLFAREYGSNNFPDCSNMCHEPTSVGLAASIGVGKGTVLLEDFEKCDLVICIGHNPGTNHPRMLTSLRALVKRGAKMIAINPLQERGLERFTAPQNPFEMLTNSETQLASAYYNVRIGGDMALLKGMMRLLIERDDAASAAGRPSLLDDEFIQTHTVGFDELRRDVLNSEWKDIERISGLSQTQIAELADAYAAAERTIICYGMGITQHEHGTQNVQQLVNLLLMKGNIGKPGAGICPLRGHSNVQGDRTVGITEKPSAEFLARLGERYGFTPPHAPGHAAIASMQAICTGQARALICMGGNFALAMPDREASAVPLTQLDLAVHVATKLNRSHLLTARHSYILPVLGRSEIDMQKNGAQAVTVEDSMSMIHASRGVLKPAGVMLKSECAVVAGIAQAALPQSVVAWEYLVEDYDRIRNDIEAVLPEFADYNQRIRHPGGFHLINAAAERRWMTPSGKANFITSKGLLEDPSSAFNSKLVMATVRSHDQYNTTIYGMDDRYRGVFGQRDVVFMSAKQAKICRVKNGERVNLIALTPDGKRSSRRMDRLKVVIYPMADRSLVTYFPESNHMLTLDNHDPLSGIPGYKSIPVELEPSNEGHHHHHH | soluble
PFSFCRRIYLPTDLRSYPSVRNVLIHEQEHTRATHFVDLLIAEVACMLFWFNPFAWALKRDMQRNLEFLADRAVLLRGVSRREYQYELL | not soluble
MSQLRADKKGTHRVAFDRNKKKLLKAATVCGICGKPVDKSLKYPHPLSAAIDHIVPIAKGGHPSALENLQLTHWQCNRQKSDKLFANQASNEPKTIGNRNLPQSRDWSSFAFKKLEHHHHHH | soluble
MSLANLYLMRSRSDELNTIISTNLLKNYSKIYKNIAIYCPVIYIHRVPVLQGWLEEFNINQTVKSAYGFTFREAMEEFSKDPHNFFNVILEEYEELKRKYDFVLVNSFCEFGILDGFDLSIKLAKNLNTPIAAIINDEDKLIAQKYFDHALDGRNYVLINENFNFEEVQKLKEYDFITPHRFKYELIKQSIKNKKTVVLPESNDERILKAAEILLKSKVVDLILLGDEEKIKQDATRLSLDLSAMQIMNPLNSEYNQKFTSILYEARKSKGMSLEEAKMLVQDKTYFGTLLIHTGKADAMVSGASTTTAETIRPALQLIKTKEGISSVSGIFFMGLEDQVLAFADCAVNPSPTAEQLATSAYVSAMTAKSFGLEPRIALLSYSSGDSGKGESVDLVKEALKIAKEKYPELNIDGPMQFDCAYDPKTAAKKMPNSKIAGHANVYIFPDLNAANICYKAVQRTANALAIGPILQGLKKPVNDLSRGCLVDDIVDTVILSAIQAQEGHHHHHH | soluble
GSHMTEAEYLANYDPKAFKAQLLTVDAVLFTYHDQQLKVLLVQRSNHPFLGLWGLPGGFIDETCDESLEQTVLRKLAEKTAVVPPYIEQLCTVGNNSRDARGWSVTVCYTALMSYQACQIQIASVSDVKWWPLADVLQMPLAFDHLQLIEQARERLTQKALYSLVPGFALSEPFTLPELQHVHEVLLGKPIQGKSFRRRVEQADLLIDTGLKRTERGRPANLYCLKPDTASYRFLRNLEC | soluble
MEFRRKCSRSAMRHKSQKRRAMPNQDVEKVNEIFKFPRISEQALMDGILKISCIASFKNGNQRCFEGSIYVKELCGLRNGTKVFKFIELANIRLYSIDEEDEIPEYDWIISV | not soluble
MSLNHSVRKCGYLRKQKHGHKRFFVLRGPGAGGDEATAGGGSAPQPPRLEYYESEKKWRSKAGAPKRVIALDCCLNINKRADAKHKYLIALYTKDEYFAVAAENEQEQEGWYRALTDLVSEGRAAAGDAPPAAAPAASCSASLPGALGGSAGAAGAEDSYGLVAPATAAYREVWQVNLKPKGLGQSKNLTGVYRLCLSARTIGFVKLNCEQPSVTLQLMNIRRCGHSDSFFFIEVGRSAVTGPGELWMQADDSVVAQNIHETILEAMKALKELFEFRPREGHHHHHH | soluble
MSSPRHVFYISDRTGLTAENIGEALLNQFGNLSFKRHTHPFVDTPEKARAVVEKVNRSRQENGQRPIAFVSVVDDEIRRIIKGADAFQINFFETFLGLLEKELNTEATASGQGHHSIGNTKRYDARMEAVNFSLNHDDGVSDKNLQEADVILMGVSRSGKTPTCLYLALQYGIRAANYPLIPDDLESADLPRMVKPYRDKLFGLTIQPERLQAIRQERRPNSTYAKIDTCRSEVADAQSMFRRHGIPFANTTDKSVEELAVHILQACKLKRRF | not soluble
MKITAIHLYAIRLPLRNPFVISYGSYSDMPSIIVKMETDEGIIGYGEGVADDHVTGESWESTFHTLKHTLTPALIGQNPMNIEKIHDMMDNTIYGVPTAKAAIDIACFDIMGKKLNQPVYQLIGGRYHEEFPVTHVLSIADPENMAEEAASMIQKGYQSFKMKVGTNVKEDVKRIEAVRERVGNDIAIRVDVNQGWKNSANTLTALRSLGHLNIDWIEQPVIADDIDAMAHIRSKTDLPLMIDEGLKSSREMRQIIKLEAADKVNIKLMKCGGIYPAVKLAHQAEMAGIECQVGSMVESSVASSAGFHVAFSKKIITSVELTGPLKFTKDIGNLHYDVPFIRLNEKPGLGIEINEDTLQELTVFQDIVR | soluble
MSETQNSTSQKAMDEDNKAASQTMPNTQDKNYEDELTQVALALVEDVINYAVKIVEEERNPLKNIKWMTHGEFTVEKGLKQIDEYFSKCVSKKCWAHGVEFVERKDLIHSFLYIYYVHWSISTADLPVARISAGTYFTMKVSKTKPPDAPIVVSYVGDHQALVHRPGMVRFRENWQKNLTDAKYSFMESFPFLFNRVLEHHHHHH | soluble
MSQESSVLSESQEQLANNPKIEDTSPPSANSRDNSKPVLPWDYKNKAIEIKSFSGYKVNFTGWIRRDVREERQRGSEFTASDVKGSDDKATRKKEPADEDPEVKQLEKEGEDGLDS | soluble
